Experimental data: patent US20080032921A1
Where two headings read alike, the source gives them in different places.

Columns and labels:
HLA-DR DRB1*0101 (human) [1] = test: competition assay, purified HLA, inhibition of 125I-labelled reference peptide
HLA-DR DRB1*0301 (human) [2] = test: as above
HLA-DR DRB1*0401 (human) [3] = test: as above
HLA-DR DRB1*0404 (human) [4] = test: as above
HLA-DR DRB1*0405 (human) [5] = test: as above
HLA-DR DRB1*1302 (human) [6] = test: as above
[7] = biological target: purified HLA DRB1*0101 (human); test: competition with 125I-labelled peptide for purified HLA
[8] = biological target: purified HLA DRB1*0401 (human); test: as above
[9] = biological target: purified HLA DRB1*1302 (human); test: as above
[10] = biological target: purified HLA DRB1*1501 (human); test: as above
[11] = biological target: purified HLA DRB4*0101 (human); test: as above
HLA-DR DRB1*0101 (human) [12] = test: competition with 125I-labelled reference peptide on purified HLA-DR
HLA-DR DRB1*0401 (human) [13] = test: as above
HLA-DR DRB1*1302 (human) [14] = test: as above
HLA-DR DRB1*1501 (human) [15] = test: as above
HLA-DR DRB4*0101 (human) [16] = test: as above
[17] = biological target: purified HLA DRB1*0101 (human); test: competition with 125I-labelled reference peptide, purified HLA
[18] = biological target: purified HLA DRB1*0301 (human); test: as above
[19] = biological target: purified HLA DRB1*0401 (human); test: as above
[20] = biological target: purified HLA DRB1*0404 (human); test: as above
[21] = biological target: purified HLA DRB1*0405 (human); test: as above
[22] = biological target: purified HLA DRB1*1302 (human); test: as above
HLA-DR DRB1*0101 (human) [23] = test: competition with 125I-labelled peptide, purified HLA
HLA-DR DRB1*0301 (human) [24] = test: as above
HLA-DR DRB1*0401 (human) [25] = test: as above
HLA-DR DRB1*0404 (human) [26] = test: as above
HLA-DR DRB1*0405 (human) [27] = test: as above
HLA-DR DRB1*1302 (human) [28] = test: as above
HLA-DR DRB4*0101 (human) [29] = biological target: HLA-DR DRB4*0101 (human)
HLA-DR DRB1*0101 (human) [30] = test: competition vs 125I-labeled peptide, purified HLA
HLA-DR DRB1*0401 (human) [31] = test: competition vs 125I-labeled peptide, purified HLA
HLA-DR DRB1*1302 (human) [32] = test: competition vs 125I-labeled peptide, purified HLA
HLA-DR DRB1*1501 (human) [33] = test: competition vs 125I-labeled peptide, purified HLA
HLA-DR DRB1*0101 (human) [34] = biological target: HLA-DR DRB1*0101 (human)
HLA-DR DRB1*0301 (human) [35] = test: competition with 125I-labelled reference peptide on purified HLA-DR
[36] = biological target: purified HLA-DR DRB1*0101 (human); test: competition with 125I-labelled reference peptide, purified HLA
[37] = biological target: purified HLA-DR DRB1*0301 (human); test: as above
[38] = biological target: purified HLA-DR DRB1*0401 (human); test: as above
[39] = biological target: purified HLA-DR DRB1*0404 (human); test: as above
[40] = biological target: purified HLA-DR DRB1*0405 (human); test: as above
[41] = biological target: purified HLA-DR DRB1*1101 (human); test: as above
[42] = biological target: purified HLA-DR DRB1*1302 (human); test: as above
[43] = biological target: purified HLA-DR DRB1*1501 (human); test: as above
[44] = biological target: purified HLA-DR DRB4*0101 (human); test: as above
[45] = biological target: purified HLA-DR DRB5*0101 (human); test: as above
HLA-DR DRB1*0701 (human) = test: competition with 125I-labelled peptide, purified HLA
HLA-DR DRB1*1101 (human) = test: as above
HLA-DR DRB1*1501 (human) [46] = test: as above
HLA-DR DRB1*0802 (human) = test: as above
HLA-DR DRB4*0101 (human) [47] = test: as above
HLA-DR DRB5*0101 (human) = test: as above
HLA-DR DRB1*0301 (human) [48] = test: competition vs 125I-labeled peptide, purified HLA
HLA-DR DRB4*0101 (human) [49] = test: competition vs 125I-labeled peptide, purified HLA

Binder: LILYDKEEIRRIWRQ (modifications not checked) [Flu.NP.111]
- IC50 (HLA-DR DRB1*0101 (human) [1]): 7180 nM
- IC50 (HLA-DR DRB1*0301 (human) [2]): 22 nM
- IC50 (HLA-DR DRB1*0401 (human) [3]): 12400 nM
- IC50 (HLA-DR DRB1*0404 (human) [4]): 262 nM
- IC50 (HLA-DR DRB1*0405 (human) [5]): 7500 nM
- IC50 (HLA-DR DRB1*1302 (human) [6]): 3100 nM

Binder: SLMLQIGNMISIWVSHS (modifications not checked) [Flu.NA.21 peptide …]
- IC50 [7]: 36 nM
- IC50 [8]: 480 nM
- IC50 [9]: 44 nM
- IC50 [10]: 34 nM
- IC50 [11]: 746 nM
- IC50 (HLA-DR DRB1*0101 (human) [12]): 36 nM
- IC50 (HLA-DR DRB1*0401 (human) [13]): 480 nM
- IC50 (HLA-DR DRB1*1302 (human) [14]): 44 nM
- IC50 (HLA-DR DRB1*1501 (human) [15]): 34 nM
- IC50 (HLA-DR DRB4*0101 (human) [16]): 746 nM

Binder: AGLLVSDGGPNLYNI (modifications not checked) [Flu.PB1.590]
- IC50 [17]: 8120 nM
- IC50 [18]: 107 nM
- IC50 [19]: 3000 nM
- IC50 [20]: 3490 nM
- IC50 [21]: > 10000 nM
- IC50 [22]: 105 nM

Binder: LEGFSAESRKLLLVV (modifications not checked) [Flu.PA.658]
- IC50 (HLA-DR DRB1*0101 (human) [23]): 12 nM
- IC50 (HLA-DR DRB1*0301 (human) [24]): 661 nM
- IC50 (HLA-DR DRB1*0401 (human) [25]): 861 nM
- IC50 (HLA-DR DRB1*0404 (human) [26]): 1150 nM
- IC50 (HLA-DR DRB1*0405 (human) [27]): 3860 nM
- IC50 (HLA-DR DRB1*1302 (human) [28]): 2270 nM

Binder: KSSFFRNVVWLIKKN (modifications not checked) [Flu.HA.156]
- IC50 (HLA-DR DRB4*0101 (human) [29]): > 10000 nM
- IC50 (HLA-DR DRB1*0101 (human) [30]): 46 nM
- IC50 (HLA-DR DRB1*0401 (human) [31]): 474 nM
- IC50 (HLA-DR DRB1*1302 (human) [32]): 20 nM
- IC50 (HLA-DR DRB1*1501 (human) [33]): 832 nM

Binder: TQGALLNDKHSNGTVKD (modifications not checked) [Flu.NA.115 peptide …]
- IC50 (HLA-DR DRB1*0101 (human) [34]): > 10000 nM
- IC50 (HLA-DR DRB4*0101 (human) [29]): > 10000 nM
- IC50 (HLA-DR DRB1*0301 (human) [35]): 177 nM
- IC50 (HLA-DR DRB1*0401 (human) [13]): 19000 nM
- IC50 (HLA-DR DRB1*1302 (human) [14]): 468 nM
- IC50 (HLA-DR DRB1*1501 (human) [15]): 822 nM

Binder: GSYFFGDNAEEYDN (modifications not checked) [Flu.NP.488]
- IC50 (HLA-DR DRB1*0101 (human) [1]): > 10000 nM
- IC50 (HLA-DR DRB1*0301 (human) [2]): 139 nM
- IC50 (HLA-DR DRB1*0401 (human) [3]): 1950 nM
- IC50 (HLA-DR DRB1*0404 (human) [4]): > 10000 nM
- IC50 (HLA-DR DRB1*0405 (human) [5]): 65 nM
- IC50 (HLA-DR DRB1*1302 (human) [6]): > 10000 nM

Binder: LIQLIVSGRDEQSIA (modifications not checked) [Flu.PB2.384]
- IC50 [36]: 3220 nM
- IC50 [37]: 53 nM
- IC50 [38]: 83 nM
- IC50 [39]: 90 nM
- IC50 [40]: 460 nM
- IC50 [41]: 2010 nM
- IC50 [42]: 4680 nM
- IC50 [43]: 420 nM
- IC50 [44]: 9.9 nM
- IC50 [45]: 1720 nM

Binder: VERILKEESDEALKM (modifications not checked) [Flu.NS1.68]
- IC50 (HLA-DR DRB1*0101 (human) [1]): 5190 nM
- IC50 (HLA-DR DRB1*0401 (human) [3]): 679 nM
- IC50 (HLA-DR DRB1*0404 (human) [4]): 572 nM
- IC50 (HLA-DR DRB1*0405 (human) [5]): > 10000 nM
- IC50 (HLA-DR DRB1*1302 (human) [6]): 5060 nM

Binder: EECLINDPWVLLNAS (modifications not checked) [Flu.PA.694]
- IC50 (HLA-DR DRB1*0101 (human) [23]): 34 nM
- IC50 (HLA-DR DRB1*0301 (human) [24]): 618 nM
- IC50 (HLA-DR DRB1*0401 (human) [25]): 1220 nM
- IC50 (HLA-DR DRB1*0404 (human) [26]): 183 nM
- IC50 (HLA-DR DRB1*0405 (human) [27]): 15000 nM
- IC50 (HLA-DR DRB1*1302 (human) [28]): 246 nM

Binder: YIQMCTELKLSDYEG (modifications not checked) [Flu.NP.43]
- IC50 (HLA-DR DRB1*0101 (human) [23]): 320 nM
- IC50 (HLA-DR DRB1*0301 (human) [24]): 368 nM
- IC50 (HLA-DR DRB1*0401 (human) [25]): 392 nM
- IC50 (HLA-DR DRB1*0404 (human) [26]): 1640 nM
- IC50 (HLA-DR DRB1*0405 (human) [27]): 2690 nM
- IC50 (HLA-DR DRB1*0701 (human)): 5370 nM
- IC50 (HLA-DR DRB1*1101 (human)): 5840 nM
- IC50 (HLA-DR DRB1*1501 (human) [46]): 594 nM

Binder: IYQILSIYSTVASSLA (modifications not checked) [Flu.HA.529 peptide …]
- IC50 [7]: 55 nM
- IC50 [8]: 89 nM
- IC50 [9]: 13 nM
- IC50 [10]: 4.7 nM
- IC50 [11]: 18 nM

Binder: NNMINNDLGPATAQM (modifications not checked) [Flu.PB1.535]
- IC50 [17]: 3080 nM
- IC50 [18]: 527 nM
- IC50 [19]: 798 nM
- IC50 [20]: 1830 nM
- IC50 [21]: > 10000 nM
- IC50 [22]: 477 nM

Binder: QKAMMDQVRESRNPG (modifications not checked) [Flu.NP.238]
- IC50 (HLA-DR DRB1*0101 (human) [1]): 17600 nM
- IC50 (HLA-DR DRB1*0301 (human) [2]): 450 nM
- IC50 (HLA-DR DRB1*0401 (human) [3]): 856 nM
- IC50 (HLA-DR DRB1*0404 (human) [4]): 1830 nM
- IC50 (HLA-DR DRB1*0405 (human) [5]): 13100 nM
- IC50 (HLA-DR DRB1*1302 (human) [6]): 10500 nM

Binder: TKKMVTQRTIGKKKQ (modifications not checked) [Flu.PB1.199]
- IC50 (HLA-DR DRB1*0101 (human) [23]): 1150 nM
- IC50 (HLA-DR DRB1*0401 (human) [25]): 71 nM
- IC50 (HLA-DR DRB1*0404 (human) [26]): 62 nM
- IC50 (HLA-DR DRB1*0701 (human)): 14100 nM
- IC50 (HLA-DR DRB1*0802 (human)): 55 nM
- IC50 (HLA-DR DRB1*1101 (human)): 449 nM
- IC50 (HLA-DR DRB1*1302 (human) [28]): 6120 nM
- IC50 (HLA-DR DRB1*1501 (human) [46]): 9710 nM
- IC50 (HLA-DR DRB4*0101 (human) [47]): 57 nM
- IC50 (HLA-DR DRB5*0101 (human)): 4.1 nM

Binder: WAVYSKDNSIRIGSK (modifications not checked) [Flu.NA.77 peptide …]
- IC50 (HLA-DR DRB1*0101 (human) [12]): 5400 nM
- IC50 (HLA-DR DRB1*0301 (human) [35]): 291 nM
- IC50 (HLA-DR DRB1*0401 (human) [13]): 1600 nM
- IC50 (HLA-DR DRB1*1302 (human) [14]): 36 nM
- IC50 (HLA-DR DRB1*1501 (human) [15]): 642 nM
- IC50 (HLA-DR DRB4*0101 (human) [16]): 19500 nM

Binder: VSLVKSDQICIGYHA (modifications not checked) [Flu.HA.11]
- IC50 (HLA-DR DRB1*0101 (human) [34]): > 10000 nM
- IC50 (HLA-DR DRB1*0301 (human) [48]): 511 nM
- IC50 (HLA-DR DRB1*0401 (human) [31]): 513 nM
- IC50 (HLA-DR DRB1*1302 (human) [32]): 175 nM
- IC50 (HLA-DR DRB1*1501 (human) [33]): 14500 nM
- IC50 (HLA-DR DRB4*0101 (human) [49]): 32 nM

Binder: ILSIYSTVASSLALAI (modifications not checked) [Flu.HA.532 peptide …]
- IC50 [7]: 11 nM
- IC50 [8]: 91 nM
- IC50 [9]: 7.6 nM
- IC50 [10]: 20 nM
- IC50 [11]: 824 nM
